In patent US20170088602A1 (Bristol-Myers Squibb, published 2017):
Substitutions are numbered along the chain they refer to. Names may count otherwise. Like-named read-outs stand apart in the source and are kept apart here.

Columns and labels:
[1] = target: T1, human myostatin (mature, recombinant; R&D Systems) (human, UniProt O14793 267-375); assay: cell-based or functional assay
T1 sequence: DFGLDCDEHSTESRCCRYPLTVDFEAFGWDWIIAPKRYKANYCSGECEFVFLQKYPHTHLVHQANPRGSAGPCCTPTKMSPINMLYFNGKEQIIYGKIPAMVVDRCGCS

[2] = target: T2, human BMP-11 (GDF-11; R&D Systems) (human, UniProt O95390 299-407); assay: cell-based or functional assay
T2 sequence (looked up): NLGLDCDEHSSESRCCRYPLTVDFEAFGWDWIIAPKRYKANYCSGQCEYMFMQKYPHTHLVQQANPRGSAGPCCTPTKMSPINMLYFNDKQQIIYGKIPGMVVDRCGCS

[3] = target: T3, human Activin A (R&D Systems) (human, UniProt P08476 311-426); assay: cell-based or functional assay
T3 sequence (looked up): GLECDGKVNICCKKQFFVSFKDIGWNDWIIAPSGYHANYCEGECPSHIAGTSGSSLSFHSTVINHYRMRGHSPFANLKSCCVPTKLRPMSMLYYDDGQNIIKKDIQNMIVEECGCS

[4] = target: T1, human myostatin (mature, recombinant; …); assay: SPR format A, 25C
Text: (§1) Anti-human Fc antibody (Biacore/GE) was immobilized on a Biacore CM5 chip via NHS/EDC coupling according to the manufacturer's instructions. […] A concentration range of anti-myostatin Adnectin was applied across all flow cells in HBSP running buffer. Regeneration of the chip surface between cycles was accomplished with two 30 second pulses of 3M MgCl₂. Kinetic traces of reference-subtracted sensorgrams were fit to a 1:1 binding model using Biaevaluation software.

[5] = target: T2, human BMP-11 (GDF-11; R&D Systems); assay: SPR format A, 25C
Text: as §1

[6] = target: T1, human myostatin (mature, recombinant; …); assay: competitive HTRF (1889E01/myostatin/ActRIIb-Fc sandwich)
Text: An HTRF assay was used to measure the binding affinities of anti-myostatin Adnectins to myostatin. […] The Eu-W 1024 labeled Streptavidin is used to bind biotinylated 1889E01. […] In the presence of a competitive Adnectin, the HTRF signal decreases.

[7] = target: T1, human myostatin (mature, recombinant; …); assay: cell-based or functional assay; remark: listed apart in the source
[8] = target: T2, human BMP-11 (GDF-11; R&D Systems); assay: cell-based or functional assay; remark: listed apart in the source
[9] = target: T3, human Activin A (R&D Systems); assay: cell-based or functional assay; remark: listed apart in the source
[10] = target: T1, human myostatin (mature, recombinant; …); assay: cell-based or functional assay; remark: listed apart in the source
[11] = target: T1, human myostatin (mature, recombinant; …); assay: cell-based or functional assay; remark: listed apart in the source
[12] = target: T1, human myostatin (mature, recombinant; …); assay: competitive HTRF, alanine scan
[13] = target: T1, human myostatin (mature, recombinant; …); assay: cell-based or functional assay; remark: listed apart in the source

B1: ATI-1106 [40K 2-branch PEG] (designed binder)
chain: MGVSDVPRDLEVVAATPTSLLISWVSPRGRARYYRITYGETGGNSPVQEFTVPGRGSTATISGLKPGVDYTITVYAVTIYRDGMSHHDPISINYRTGSGCHHHHHH
modifications: 40K 2-branch PEG on the Cys of the GSGC tail
ARE-luciferase IC50 [1]: 177 nM | ARE-luciferase IC50 [2]: 1410 nM | ARE-luciferase IC50 [3]: > 2000 nM

B2: ATI-1376 [40K 2-branch PEG] (designed binder)
chain: MGVSDVPRDLEVVAATPTSLLISWDAPAGLARYYRITYGETGGNSPVQEFTVVGRGNTATISGLKPGVDYTITVYAVTIFRDGPVTWDPISINYRTEGSGCHHHHHH
modifications: 40K 2-branch PEG on the Cys of the EGSGC tail
notes: cysteine mutant of 3115_E06
Kd [4]: 8.21 nM | Kd [5]: 13.4 nM | ARE-luciferase IC50 [1]: 0.03 nM | ARE-luciferase IC50 [2]: 0.83 nM | ARE-luciferase IC50 [3]: > 1000 nM | IC50 [6]: 0.32 nM

B3: ATI-1375 [40K 2-branch PEG] (designed binder)
chain: B2 chain with A28R, V53F, N57T, F80D, P84T, V85R, T86S, W87F
modifications: 40K 2-branch PEG on the Cys of the EGSGC tail
notes: cysteine mutant of 3115_D04
Kd [4]: 12.6 nM | Kd [5]: 33.2 nM | ARE-luciferase IC50 [1]: 0.17 nM | ARE-luciferase IC50 [2]: 1.6 nM | ARE-luciferase IC50 [3]: > 1000 nM | IC50 [6]: 0.76 nM

B4: ATI-1377 [40K 2-branch PEG] (designed binder)
chain: B2 chain with A28K
modifications: 40K 2-branch PEG on the Cys of the EGSGC tail
Kd [4]: 8.21 nM | Kd [5]: 14.2 nM | ARE-luciferase IC50 [1]: 0.05 nM | ARE-luciferase IC50 [2]: 0.78 nM | ARE-luciferase IC50 [3]: > 1000 nM | IC50 [6]: 0.15 nM

B5: ATI-1359 [40K 2-branch PEG] (designed binder)
chain: MGVSDVPRDLEVVAATPTSLLISWTLPHAGRAHYYRITYGETGGNSPVQEFTVPGRGVTATISGLKPGVDYTITVYAVTVTTTKVIHYKPISINYRTEGSGC
modifications: 40K 2-branch PEG on the Cys of the EGSGC tail
Kd [4]: 7.9 nM | Kd [5]: 35.5 nM | ARE-luciferase IC50 [1]: 0.26 nM | ARE-luciferase IC50 [2]: 3.1 nM | ARE-luciferase IC50 [3]: > 1000 nM | IC50 [6]: 0.36 nM

B6: 3116_A06 (designed binder)
chain: MGVSDVPRDLEVVAATPTSLLISWSLPHQGKANYYRITYGETGGNSPVQEFTVPGRGVTATISGLKPGVDYTITVYAVTVTDTGYLKYKPISINYRTEIDKPSQHHHHHH
notes: also called WT parent
ARE-luciferase IC50 [7]: 0.14 nM | ARE-luciferase IC50 [8]: 13 nM | ARE-luciferase IC50 [9]: > 1000 nM | pSmad2 IC50, 4-point [10]: 0.27 nM | Myostatin ARE-luc IC50 [11]: 0.6 nM | IC50 [12]: 0.3 nM | IC50 [6]: 0.15 nM

B7: 3116_A06 N33A (designed binder)
chain: B6 chain with N33A
ARE-luciferase cell-based assay, IC50 relative to parent sequence [13]: > 10 fold | Myostatin ARE-luc IC50 [11]: 9.8 nM | IC50 [12]: 2 nM

B8: 3116_A06 S25A (designed binder)
chain: B6 chain with S25A
Myostatin ARE-luc IC50 [11]: 2.9 nM | IC50 [12]: 0.8 nM

B9: 3116_A06 L86A (designed binder)
chain: B6 chain with L86A
ARE-luciferase cell-based assay, IC50 relative to parent sequence [13]: > 10 fold | Myostatin ARE-luc IC50 [11]: 12 nM | IC50 [12]: 1.4 nM

B10: 3116_A06 K89A (designed binder)
chain: B6 chain with K89A
Myostatin ARE-luc IC50 [11]: 1.6 nM | IC50 [12]: 0.7 nM

B11: 3116_A06 V58A (designed binder)
chain: B6 chain with V58A
Myostatin ARE-luc IC50 [11]: 3.3 nM | IC50 [12]: 1.6 nM

B12: 3116_A06 P27A (designed binder)
chain: B6 chain with P27A
ARE-luciferase cell-based assay, IC50 relative to parent sequence [13]: > 10 fold | Myostatin ARE-luc IC50 [11]: 10 nM | IC50 [12]: 1 nM

B13: 3116_A06 L26A (designed binder)
chain: B6 chain with L26A
ARE-luciferase cell-based assay, IC50 relative to parent sequence [13]: > 10 fold | Myostatin ARE-luc IC50 [11]: 16 nM | IC50 [12]: 2.3 nM

B14: 3116_A06 K87A (designed binder)
chain: B6 chain with K87A
Myostatin ARE-luc IC50 [11]: 2 nM | IC50 [12]: 0.8 nM

B15: 3116_A06 K31A (designed binder)
chain: B6 chain with K31A
Myostatin ARE-luc IC50 [11]: 2.2 nM | IC50 [12]: 0.6 nM

B16: 3116_A06 H28A (designed binder)
chain: B6 chain with H28A
ARE-luciferase cell-based assay, IC50 relative to parent sequence [13]: > 10 fold | Myostatin ARE-luc IC50 [11]: 6.2 nM | IC50 [12]: 0.8 nM

B17: 3116_A06 T83A (designed binder)
chain: B6 chain with T83A
Myostatin ARE-luc IC50 [11]: 1.8 nM | IC50 [12]: 1.3 nM

B18: 3116_A06 Q29A (designed binder)
chain: B6 chain with Q29A
Myostatin ARE-luc IC50 [11]: 1.5 nM | IC50 [12]: 0.7 nM

B19: ATI-1266 [40K 2-branch PEG] (designed binder)
chain: MGVSDVPRDLEVVAATPTSLLISWTLPHAGRAHYYRITYGETGGNSPVQEFTVPGRGVTATISGLKPGVDYTITVYAVTVTTTSVILYKPISINYRTEGSGCHHHHHH
modifications: 40K 2-branch PEG on the Cys of the EGSGC tail
notes: cysteine mutant of 2525_D02
Kd [4]: 0.76 nM | Kd [5]: 2.57 nM | ARE-luciferase IC50 [1]: 0.12 nM | ARE-luciferase IC50 [2]: 0.89 nM | ARE-luciferase IC50 [3]: 2000 nM | IC50 [6]: 0.21 nM

B20: ATI-1341 [20K Bis-PEG] (designed binder)
chain: B19 chain with S84K, L87H
modifications: two Adnectins joined through their tail Cys to the two ends of a 20 kDa bis-PEG
notes: bivalent PEGylated form of the 2987_H07 cysteine mutant
ARE-luciferase IC50 [1]: 0.03 nM | ARE-luciferase IC50 [2]: 0.14 nM | ARE-luciferase IC50 [3]: 14 nM | IC50 [6]: 0.13 nM

B21: ATI-1379 [40K 2-branch PEG] (designed binder)
chain: B19 chain with T25S, A29Q, R31K, H33N, T82D, S84G, V85Y, I86L, L87K
modifications: 40K 2-branch PEG on the Cys of the EGSGC tail
Kd [4]: 9.5 nM | Kd [5]: 21.6 nM | ARE-luciferase IC50 [1]: 0.1 nM | ARE-luciferase IC50 [2]: 4.3 nM | ARE-luciferase IC50 [3]: > 1000 nM | IC50 [6]: 0.28 nM

B22: ATI-1378 [40K 2-branch PEG] (designed binder)
chain: B19 chain with T25S, H28N, A29P, R31N, T82D, S84G, V85F, L87T
modifications: 40K 2-branch PEG on the Cys of the EGSGC tail
notes: cysteine mutant of 3146_A08
Kd [4]: 14.4 nM | Kd [5]: 59.6 nM | ARE-luciferase IC50 [1]: 0.29 nM | ARE-luciferase IC50 [2]: 5.4 nM | ARE-luciferase IC50 [3]: > 1000 nM | IC50 [6]: 1.29 nM
